The values below come from the DeepSol protein solubility set.

This data set is described as follows: soluble on expression in E. coli; label from the status in PepcDB or PDB records.
With “GAMPPIFLPPPNYLFVRDVWKSNLYSEFAVIRQLVSQYNHVSISTEFVGTLARPIGTFRSKVDYHYQTMRANVDFLNPIQLGLSLSDANGNKPDNGPSTWQFNFEFDPKKEIMSTESLELLRKSGINFEKHENLGIDVFEFSQLLMDSGLMMDDSVTWITYHAAYDLGFLINILMNDSMPNNKEDFEWWVHQYMPNFYDLNLVYKIIQEFKNPQLQQSSQQQQQQQYSLTTLADELGLPRFSIFTTTGGQSLLMLLSFCQLSKLSMHKFPNGTDFAKYQGVIYGIDGDQ”, the “soluble on expression in E. coli” value is on record as “soluble”.
For the sequence “GAMSYSLYGTTLEQQYNKPLSDLLIRCINCQKPLSPEEKQRHLDKKQRFHNIRGRWTGRCMSCSRSSRTRRETQL”, the “soluble on expression in E. coli” value is recorded as “soluble”.
As for “GATDSATAAPAAAATTQVQKEAADVLQVAVQGANAMRDIQFARLALFHGQPDSAKKLTDDAAALLAADDASWAKFVKTDAKAKMIADRYVIINASIALSEDYVATPEKESAIQSANEKLAKGDQKGAIDTLRLAGIGVIENQYLMPLNQTRKAVAQSQELLKAGKYYEANLVLKGAEEGIVVDSEMLVAGN”, the entry is “soluble”.
As for “GATITHQEKLLTVDTTAHPFLKALGGHEGTDIFPLFMDPYNGLMVMRASFAPGLTLPLHFHTGTVHMYTISGCWYYTEYPGQKQTAGCYLYEPGGSIHQFNTPRDNEGQTEVIFMLSGCNVNFTQDGTYLGLSDAGVIKNWVDRAIREQDNGLRYIAAAVPTYAA”, the entry is “soluble”; as for “GAVFEFDNLAPMLATHGTVAGLKASQWAFEGKWDGYRLLVEADHGAVRLRSRSGRDVTAEYPQLRALAEDLADHHVVLDGEAVVLDSSGVPSFSQMQNRGRDTRVEFWAFDLLYLDGRALLGTRYQDRRKLLETLANATSLTVPELLPGDGAQAFACSRKHGWEGVIAKRRDSRYQPGRRCASWVKDKHWNTQEVVIGGWRAGEGGRSSGVGSLLMGIPGPGGLQFAGRVGTGLSERELANLKEMLAPLHTDESPFDVPLPARDAKGITYVKPALVAEVRYSEWTPEGRLRQSSWRGLRPDKKPSEVVRE”, “soluble”; as for “GDALTSPQQTKLYLSSVLRDRQREAFYILFLDNQHRVIRDEILFEGTIDAASVYPREVVKRALHHNAAAVILAHNHPSGVAEPSQADRRITDRLRDALGLVEIRVLDHFVVGDGEVVSFAERGWI”, “soluble”.
As for “GDSLTAQEALATLALSGDDDGPRQTRSYQVMNGIAVLPVSGTLVSRTRALQPYSGMTGYNGIIARLQQAASDPMVDGILLDMDTPGGMVAGAFDCADIIARVRDIKPVWALANDMNCSAGQLLASAASRRLVTQTARTGSIGVMMAHSNYGAALEKQGVEITLIYSGSHKVDGNPYSHLPDDVRETLQSRMDATRQMFAQKVSAYTGLSVQAVLDTEAAVYSGQEAIDAGLAD”, the entry is “not soluble”; as for “GDSSSSGNSFVGLRVVAKWSSNGYFYSGKITRDVGAGKYKLLFDDGYECDVLGKDILLCDPIPLDTEVTALSEDEYFSAGVVKGHRKESGELYYSIEKEGQRKWYKRMAVILSLEQGNRLREQYGLGPYEAVTPLTKAADISLDNLVEGKRKRRSN”, “soluble”; as for “GDTRPRFLQQDKYECHFFNGTERVRFLHRDIYNQEEDLRFDSDVGEYRAVTELGRPDAEYWNSQKDFLEDRRAAVDTYCRHNYGVGESFTVQRRVEPKVTVYPARTQTLQHHNLLVCSVNGFYPGSIEVRWFRNSQEEKAGVVSTGLIQNGDWTFQTLVMLETVPRSGEVYTCQVEHPSVTSPLTVEWRAQS”, “soluble”.
On to “GEAQERQTDDGIAAFCRHLGELCDLLNAPYDDVNALAHLARAGELQGTNVNLLLHNAFYHWLGERVQLSVAESRDVAPETIAAHAREAALAQIQSGEYVSQFVTAVAAHATQNVDGVQGPVAPTKQSLFDLPGHFELLGPDEVDGLLKDLASSDCPVGALEKLVADPHLLEDLCFGPTWPQLCDSLGRLVCLLPPSGGTQAAVTGAGHHQHGHTRAAAAVGGGAGRAAASVPEMPKQQQLLLQALNEVVSAVAASSPPHAAELLDGLAPYLTALALRLSLPLPGAGTGHATPVAPDQLQTRVQAGMAGPGAGAGDGGPGGVAVVGTGAVGLLVAVTARDA”, for which the “soluble on expression in E. coli” value is reported as “not soluble”.
Consider “GEERKSSSWGRVDAMELPNYSRQLLQQLYTLCKEQQFCDCTISIGTIYFRAHKLVLAAASLLFKTLLDNTDTISIDASVVSPEEFALLLEMMYTGKLPVGKHNFSKIISLADSLQMFDVAVSCKNLLTSLVNCSVQGQVVRDVSAPSSETFRKEPEKPQVEILSSEGAGEPHSSPELAATPGGPVKAETEEAAHSVSQEMSVNSPTAQESQRNAETPAETPTTAEACSPSPPVQTFSEAKKTSTEPGCERKHYQLNFLLENEGVFSDALMVTQDVLKKLEMCSEIKGPQKEMIVKCFEGEGGHSAFQRILGKVREESLDVQTVVSLLRLYQYSNPAVKTALLDRKPEDVDTVQPKGSTEEGKTLSVLLLEHKEDLIQCVTQLRPIMESLETAKEEFLTGTEKRVILNCCEGRTPKETIENLLHRMTEEKTLTAEGLVKLLQAVKTTFPNLGLLLEKLQKSATLPSTTVQPSPDDYGTELLRRYHENLSEIFTDNQILLKMISHMTSLAPGEREVMEKLVKRDSGSGGFNSLISAVLEKQTLSATAIWQLLLVVQETKTCPLDLLMEEIRREPGADAFFRAVTTPEHATLETILRHNQLILEAIQQKIECKLFTSEEEHLAETVKEILSIPSETASPEASLRAVLSRAMEKSVPAIEICHLLCSVHKSFPGLQPVMQELAYIGVLTKEDGEKETWKVSNKFHLEANNKEDEKAAKEDSQPGEQNDQGETGSLPGQQEKEASASPDPAKKSFICKACDKSFHFYCRLKVHMKRCRVAKSKQVQCKECSETKDSKKELDKHQLEAHGAGGEPDAPKKKKKRLPVTCDLCGREFAHASGMQYHKLTEHFDEKPFSCEECGAKFAANSTLKNHLRLHTGDRPFMCKHCLMTFTQASALAYHTKKKHSEGKMYACQYCDAVFAQSIELSRHVRTHTGDKPYVCRDCGKGFRQANGLSIHLHTFHNIEDPYDCKKCRMSFPTLQDHRKHIHEVHSKEYHPCPTCGKIFSAPSMLERHMVTHVGGKPFSCGICNKAYQQLSGLWYHNRTHHPDVFAAQNHRSSKFSSLQCSSCDKTFPNTIEHKKHIKAEHADMKFHECDQCKELFPTPALLQVHVKCQHSGSQPFRCLYCAATFRFPGALQHHVTTEHFKQSETTFPCELCGELFTSQAQLDSHLESEHPKVMSTETQAAASQMAQVIQTPEPVAPTEQVITLEETQLAGSQVFVTLPDSQASQASSELVAVTVEDLLDGTVTLICGEAK”, for which the “soluble on expression in E. coli” value is listed as “soluble”.
As for “GEHTTCGCGEHCGCNPCACGREGTPSGRANRRANCSCGAACNCASCGSATAPG”, the “soluble on expression in E. coli” value is “soluble”.
For “GFKCGIVGLPNVGKSTLFNALTKAGIEAANFPFCTIEPNTGVVPMPDPRLDQLAEIVKPQRTLPTTMEFVDIAGLVKGASKGEGLGNQFLTNIRETEAIGHVVRCFENDNIIHVSGKVNPADDIEVINTELALADLDTCERAIHRVQKKAKGGDKDAKAELAVLEKCLPQLENAGMLRALDLSAEEKAAIRYLSFLTLKPTMYIANVNEDGFENNPYLDQVREIAAKEGSVVVPVCAAVEADIAELDDEERDEFMQELGLEEPGLNRVIRAGYKLLNLQTYFTAGVKEVRAWTIPVGATAPQAAGKIHTDFEKGFIRAQTISFEDFITYKGEQGAKEAGKMRAEGKDYIVKDGDVMNFLFNV”, the “soluble on expression in E. coli” value is reported as “not soluble”.
Next, “GGALGGSIAFETVDAQDLLEGNQKLGMMLRSGYASASDGYLGGTSVYGLLSDHLGILVDVSGQNEDDYRGGSGEDALYTATKDRNYFAKLSLLDLEGHTLKVGATHNKSSGHYVSGSTGSDMGAPSASQKADFQVLKRDTYTLDHRYNPENPYVDIQTKIYRNERHLENRTSLLDVTSQTTGGSLKNVMTLDSGIFQHRFTLGGDYEQEKGIVENSLYENEAKTTGLFLQGLTRVEALKLHYGLRWDDYKSDFGPKTLSGDELSPNFGAEYELLSGLALFSNYSESVRAGGIIPLQWMAGITQSANFNNGEAFKPEISKQKEGGIKYSTRGVFADNDRMKLSATLFKTTIENLIDYTRSGGPSGKITKIFNQEEDLISKGYELKASWEKEAWATSLGFIHVEMEEGGEPVVVSRRKAASMGDRFVWDVSYQMTPELLLGYTLHAVDKLDDVPALYRRAGYVTHDLELQWRPASIKGLTWSLAVHNLLDKSYYEQSSFESGDSIVEEAGRDVRLAVKYKF”: “not soluble”.
